Test: soluble on expression in E. coli; label from the status in PepcDB or PDB records

Sequence | soluble on expression in E. coli
GPLGSCSSPQVEIPTTYSPEKIAQLQVYVNPIAVARDGMEKRLQGLIADQNWVDTQTYIHGPLGQLRRDMLGLASSLLPKDQDKAKTLAKEVFGHLERLDAAAKDRNGSQAKIQYQEALADFDSFLNLLPQAS | soluble
MSLKPQKILIATDGSEASEKAADFGIETLRFEGAKVYAVYVIDTGSYGSVPVDEKKFKKIERLEEIGHKATSYVEKKATAAGMKVESIVLKGNPAEEIVDFAEEQRVDMIVVGSLGKSGIKRFMLGSVSEKVVRRAKIPVLVVREQKEIKPQKQILIAADCSKATEKAVDFGIEIAKLNGAKVYAVHVIDPIFNDLMEEAWAENAYEQFKKIGREAVSYVEEKANAAGVKVESAVLEGNPAEEIVDFAEEQKVDMIVVGSLGKSGYEQFAIGSVSSKVLRNAKVPVLIVHDIYEFVELFRRCQKSEEVLTPVAGEKEGHHHHHH | soluble
MGSDKIHHHHHHMRDYSPYPLLVDVCVTNRCNLSCSYCSAEAGPFASKKGEMSVEKLDSIFRELNLMGVPRVGVTGGEPFIRDDILDILKAFDKYHFAKVLNTNGNLITDSVAKELSKLHLDRICVTVDGSCSKVHDSQRGKGSFKKAIEGIKNLQRYNLPVSTLFTLGRHNVDDLINTIRLNDMLRIKYMSVMIICPTGRANNGSILADKKHWYPVFLDLTERLSRGEFKVKFKIVPPNESDVFWTHYFPLAFYNRLDLLESVWHQSLNFNSNKKREISCQAGVRACSINHKGDVYGCDLMNGIDELVAGNVKEKSFYEIWHNSSIFHKLRNITFDDISGKCAGCPLPWCGGGCRCSALELDGTLLGSDLACFYDEEESVLV | not soluble
MSLGKGVRDPGSDGSLRRKELAMIKVEDMMTRHPHTLLRTHTLNDAKHLMEALDIRHVPIVDANKKLLGIVSQRDLLAAQESSLQRSAQGDSLAFETPLFEVMHTDVTSVAPQAGLKESAIYMQKHKIGCLPVVAKDVLVGIITDSDFVTIAINLLELQEESEPDELDEEQEGGSHHHHHH | soluble
MLSKIELMLLRSLETGKTYTPEEAAELSGLSKDAVLKAAYMLQERGYVRVIENVRTHYSLTEEGERYLKEGLPEEKLYSLVKSGVNSMDELRKRMGREFQIALGWLRRKGAVEVEGDKVVPKREPSFDERA | soluble
MDITEKLRLITRNAEEVVTEEELRQLIETKEKPRAYVGYEPSGEIHLGHMMTVQKLMDLQEAGFEIIVLLADIHAYLNEKGTFEEIAEVADYNKKVFIALGLDESRAKFVLGSEYQLSRDYVLDVLKMARITTLNRARRSMDEVSRRKEDPMVSQMIYPLMQALDIAHLGVDLAVGGIDQRKIHMLARENLPRLGYSSPVCLHTPILVGLDGQKMSSSKGNYISVRDPPEEVERKIRKAYCPAGVVEENPILDIAKYHILPRFGKIVVERDAKFGGDVEYASFEELAEDFKSGQLHPLDLKIAVAKYLNMLLEDARKRLGVSV | soluble
GPGSMLLERQQLVQALQLSYHCSAACATSTVNSYYPDEEKCRATVQGKMTAPFVLAVGMVPKQREYVDSLRDDLAVAFQHFPYLNGTAKPPDKEEQKGCAKAVASGERGRNGRASSPASIDWAGVRARLLSPKKVPLWYMHTELVFPGDTHDVRIYENAYQSLIVKEGFSYVIGCYASGDGVVPALDYVNARLCGESVQSLAQRIGFDDDVVEALEGLEAEVPTRVYTRVNAFGNNPATSRSSRQDKGHAQQVLKEAGLAYVRSYVTTRADEAVAKVEDGTLLLPVVVKPNSGAGSEFVTLCYTVDDIRVAFSMVEGVRTSQGTDAAQLVVEEYIEGPEYVVNTVSYQGVHVVTDVWESWKYPEPVVTTGLTRSAEEALRAAGIKRQKQRKISILYDRQTLITNLADLPATHSARRIVEYTLKCLDALGLENGCGHSEVRLDTRKAARELRRHEQRRPKTNSPLGKVKDEHLDEGEPILIELNSRMQGDIPRSTDVIGYDQYSLLVYISEAVNVFGAATAASTALPFRVDSSRPQRVGEIPWPPVPRLYRARPSTGLPLATTVLFLATEEECILNGVALRTLTELGTFQRFTRTIFKPNQPGFVTPLRHTVDLFSSPTSCVMQGPAAAVKADCAAIRSMESAALCSAAKAALFKLTSTIHETERLRENARIIDGRLHAMTEAYRRASAQAGSATDEVADDGREKDEQGTENDCCSSQHDLEALRRSISSLQSELTWVTNNLAADDRQVQLLRTEFAKALASQKPAPLYINYQDFSMMKAAGVGNELAVL | not soluble
MFRSVLVEAAVRVESPLLAHRLEDALLHACKQRFCSRILPSLGVCLTALRICKLVDGAGKQLALEIWPVEVSGGGLRARVHVELLLWSPLPHELAFAQVRSCSRFGIRLSILNGFDYAFVPPGSMPEPCTYHEEQRCWSWRFNEDDFVIGEGDWVRVLIERVEYATDSAMATFDSPGTVGSGPPLHILPPPVPVGRTVMETDQANATPGAHPEHAPPLETEPPEFWETPSILPLRVWARLDAPGLGPIDWWS | not soluble
MSLRPDMSRLTMIRFLTEIDYPPFNFTGADGNPAGFNVDLARALCDEIKITCTVQMRKFETLLDALASNRGDAIIASLAVTPQTRTKLDFTDPYYRTPARFVARKDAVMPEMRPEFLEGRKVGAVAGSAHEAYLKAMFTDAELHSYPNAEALRAALKRGEVDFIFGDAISLAFWINGTDSENCCAFSGAPFLESRYFGEGVGIAVRKGNDTLRQALNWALFRVWEKGQYTDLWLRYFSVSEGHHHHHH | soluble
MSLAYQALYRVFRPQSFQDVVGQEHVTKTLKNAIVQNKTSHAYLFSGPRGTGKTSAAKIFAKAINCEHGHDGEPCNECEICKGTTDGSIPDVLEIDAASNNGVEEIRDIREKVKYAPTVAKYKVYIIDEVHMLSTGAFNALLKTLEEPPKHVIFILATTEPHKLPLTIISRVQRFDFKRITTQDIIGRLKFILEEEKIPYDEKALMIVARAAEGGMRDALSLLDQVISYGSEEVTVEDALEITGSVAQNLLTKLVSAAFDGDAAEAISTLTALLAEGKDPVRLVEDLLVFFRDVLLYQKAPNLEETLERALIDDDFVALAKRADSLKVYEFVKILNTAQQQMRFSNHPGIYVEVALIQLTQAGEGHHHHHH | soluble
MPNRKVVKFFFDVISPYSYFGFEGITRHRSVWKTPIQMKPFFFAGVVRHTENPGLPLRIPIKEKYMHKDLLFSAQYWGIPFRLPKDYTNMMLNTSSIVPQRILVASQLRDNVLMEDVARGLWHRFYAYGKPIFTKSQVAEVLRDLHVKDVDELVMMSDSAEVKNILRENTDEAIGNGCFGAPWMHITDGHGKVLQTVFGSDRLPQVADFLAEPFKGPMREKKPNA | not soluble
MDAIVMAGGFGQRLGMGEKPCVELLGKPLITYVIDNLRASKNIDRVFVAVSPVTPKTEIMIQERYKGEVQVIRTFGGNYVGDMIHAVETSNTAGPVMIIMSDLPLVNPDLIDSVIEKYREEGKPALSVYVPINVCRGTGTRPDTVFNKDGKLIVPAGVNILDSSQIRKEQEDFNLILDNPRLAINVNTVKDLQRCKDLLQCSN | soluble
MGSDKIHHHHHHMSMTDTTLAETEILLAQPRGFCAGVDRAIEIVERAIKLHGSPIYVRHEIVHNAYVVEDLRKKGAIFIERLEEVPPGNTVIFSAHGVSKAVRSEAEIRGLRVYDATCPLVTKVHIEVAKMRQDGFDIVMIGHKGHPEVEGTMGQAGEGMHLVEDIEDVQALQLADPERIAFVTQTTLSVDDAAQIIAALKAKYPSIREPKKQDICYATQNRQDAVKFMAPQCDVVIVVGSPNSSNSNRLRELAEKLGVPAYMVDSPDQIDPVWVEGKRRIGVTAGASAPEVLAQAVIARLRELGVRNVRALDGIEENIAFPLPRGLGLPA | not soluble
PKNKAKKNPVRFYKNNFFMLKDKVNNIYVYVYEHKKNDNYNDLYLPRDNVFPYLGRVYINNDNGFIINDVYFSSERIGVKNYYDKDNPILINKHSSEGNRSYGYEPETFAEIKFKTKLDNISKSQIEYIIEFKPYDSIVDYVGDNIKKTLREPVKIEGTFEIIKEDEAEIIRLHNADIFGLYNVESILFSSERIFSGNVFNFDYLFINGKEKINSSINGVKEFSDEFLKDKINENKNIVESYVKESKQRHWKSLMDESILNYIDNYADYYNELKEFKSFNILYYDDKTISLYKRVSKLEDLKLAEIDNMFMTFELESQKLISPYIKDFVNDSEALLKKYNAPSDFYSNIDSLIFGITDSFIIIMNEKGCGKIFIDYKNIKEYINKDHYLAYLFN | not soluble

Reference: the DeepSol protein solubility set
